Measured values from US20250084179A1 (Xencor, published 2025).

T1: TROP2 (UniProt P09758 27-274, limits assumed)
T1 construct: also called tumor-associated calcium signal transducer 2; TACSTD2
T1 sequence (looked up): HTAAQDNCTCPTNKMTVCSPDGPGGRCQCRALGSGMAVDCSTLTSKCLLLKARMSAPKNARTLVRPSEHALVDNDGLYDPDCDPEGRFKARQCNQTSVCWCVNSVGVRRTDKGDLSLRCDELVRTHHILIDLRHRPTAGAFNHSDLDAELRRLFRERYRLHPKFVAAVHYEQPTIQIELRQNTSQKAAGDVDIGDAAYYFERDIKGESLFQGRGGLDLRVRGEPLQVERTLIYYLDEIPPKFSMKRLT

T2: Cyno TROP2 (Macaca fascicularis, UniProt A0A2K5UE71)
T2 construct: Construct used in the measurement is not described; also called cynomolgus TROP2
T2 sequence (antigen): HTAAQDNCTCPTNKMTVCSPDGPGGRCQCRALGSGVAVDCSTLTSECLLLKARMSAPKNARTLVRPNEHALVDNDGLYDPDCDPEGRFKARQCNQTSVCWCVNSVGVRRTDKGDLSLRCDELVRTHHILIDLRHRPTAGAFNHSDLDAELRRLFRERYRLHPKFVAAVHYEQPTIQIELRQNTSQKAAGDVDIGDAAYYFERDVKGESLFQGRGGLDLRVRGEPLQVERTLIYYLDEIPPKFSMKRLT


Legend:
[1] = target: T1, TROP2; test: KD; method and format not stated
[2] = target: T1, TROP2; test: monovalent KD; method not stated
[3] = target: T1, TROP2; test: not stated; bivalent format
[4] = target: T2, Cyno TROP2; test: not stated; bivalent format
[5] = target: T3, human CD28 (human, UniProt P10747 19-152, limits assumed); test: Octet, monovalent KD; format of this comparator not stated
T3 construct: also called Cluster of Differentiation 28; Tp44

[6] = target: T3, human CD28; test: not stated; value printed beside the name in the 'CD28 Mutations' cell, apparently a reference affinity of this domain
[7] = target: T3, human CD28; test: Octet, monovalent KD of Fab
[8] = target: T3, human CD28; test: another set of experiments; monovalent Fab, method not restated (Octet for the FIG. 35 data)

| Binder | Kd [3] | koff [3] | kon [3] | Kd [4] | koff [4] | kon [4] | Kd [7] | also measured |
| --- | --- | --- | --- | --- | --- | --- | --- | --- |
| 2C5A3.316 (antibody, V domains shown, Phage-derived TROP2 clone; also called 2C5A3.316[TROP2]_H1 with L1) VH: QVQLVQSGAEVKKPGSSVKVSCKASGGTFTTSGISWVRQAPGQGLEWMGGIVPLLGTVNYAQKFQGRVTITADESTSTAYMELSSLRSEDTAVYYCARSGAATDARYGLDYWGQGTLVTVSS VL: not shown |  |  |  |  |  |  |  | Kd [1]: 345 nM |
| 1A3A4.312 (antibody, V domains shown, Phage-derived TROP2 clone; also called 1A3A4.312[TROP2]_H1 with L1) VH: QVQLVQSGAEVKKPGASVKVSCKASGYTFTRHYMHWVRQAPGQGLEWMGIINPGGGATSYAQKFQGRVTMTRDTSTSTVYMELSSLRSEDTAVYYCAREDYAGKWWGMDYWGQGTLVTVSS VL: not shown |  |  |  |  |  |  |  | Kd [1]: 80 nM |
| 1B2A4.312 (antibody, V domains shown, Phage-derived TROP2 clone; also called 1B2A4.312[TROP2]_H1 with L1) VH: QVQLVQSGAEVKKPGASVKVSCKASGYTFTGSYMHWVRQAPGQGLEWMGIINPSGESTVYAQKFQGRVTMTRDTSTSTVYMELSSLRSEDTAVYYCARDPGGSWPFSYALDYWGQGTLVTVSS VL: not shown |  |  |  |  |  |  |  | Kd [1]: 64 nM |
| 1B11A3.316 (antibody, V domains shown, Phage-derived TROP2 clone; also called 1B11A3.316[TROP2]_H1 with L1) VH: QVQLVQSGAEVKKPGASVKVSCKASGYTFTRYYMHWVRQAPGQGLEWMGIINPGGGSTIYAQKFQGRVTMTRDTSTSTVYMELSSLRSEDTAVYYCARDDVIVDAFDYWGQGTLVTVSS VL: not shown |  |  |  |  |  |  |  | Kd [1]: 54 nM |
| 1F11-1A3.315_H1L1 (antibody, V domains shown, also called 1F11-1A3.315[Trop2]_H1 with L1; copies: 1 + 1) VH: QVQLVQSGAEVKKPGASVKVSCKASGYTFTRYYMHWVRQAPGQGLEWMGIINPGGGSTGYAQKFQGRVTMTRDTSTSTVYMELSSLRSEDTAVYYCARDDVVAADVFDYWGQGTLVTVSS VL: not shown | 6.5 nM | 0.0012 s⁻¹ | 190000 M⁻¹ s⁻¹ | 9.9 nM | 0.0021 s⁻¹ | 210000 M⁻¹ s⁻¹ |  | Kd [2]: 13 nM |
| 1F11-1A3.315_H1.19_L1 (antibody, V domains shown, also called 1F11-1A3.315[Trop2]_H1.19 with L1) VH: QVQLVQSGAEVKKPGASVKVSCKASGYTLTRYYMHWVRQAPGQGLEWMGIIEPGGGSTTYAQKFQGRVTMTRDTSTSTVYMELSSLRSEDTAVYYCARDDVVKADVFDYWGQGTLVTVSS VL: not shown | 0.25 nM | 0.0001 s⁻¹ | 410000 M⁻¹ s⁻¹ | 0.46 nM | 0.0002 s⁻¹ | 450000 M⁻¹ s⁻¹ |  | Kd [2]: 2 nM |
| 1F11-1A3.315[Trop2]_H1.31_L1 (antibody, V domains shown) VH: QVQLVQSGAEVKKPGASVKVSCKASGYTLTRYYVHWVRQAPGQGLEWMGIIEPGGGSTDYAQKFQGRVTMTRDTSTSTVYMELSSLRSEDTAVYYCARDDVVKADVFDYWGQGTLVTVSS VL: not shown | 0.43 nM | 0.00013 s⁻¹ | 300000 M⁻¹ s⁻¹ | 0.48 nM | 0.00014 s⁻¹ | 300000 M⁻¹ s⁻¹ |  |  |
| 1F11-1A3.315[Trop2]_H1.30_L1 (antibody, V domains shown) VH: QVQLVQSGAEVKKPGASVKVSCKASGYTLTRYYVHWVRQAPGQGLEWMGIIEPGGGSTLYAQKFQGRVTMTRDTSTSTVYMELSSLRSEDTAVYYCARDDVTAADVFDYWGQGTLVTVSS VL: not shown | 2.2 nM | 0.00037 s⁻¹ | 170000 M⁻¹ s⁻¹ | 3.7 nM | 0.00055 s⁻¹ | 150000 M⁻¹ s⁻¹ |  |  |
| 1F11-1A3.315_H1.10_L1 (antibody, V domains shown, also called 1F11-1A3.315[Trop2]_H1.10 with L1) VH: QVQLVQSGAEVKKPGASVKVSCKASGYTFTRYYMHWVRQAPGQGLEWMGIIEPGGGSTTYAQKFQGRVTMTRDTSTSTVYMELSSLRSEDTAVYYCARDDVVAADVFDYWGQGTLVTVSS VL: not shown | 0.98 nM | 0.00033 s⁻¹ | 330000 M⁻¹ s⁻¹ | 1.5 nM | 0.00053 s⁻¹ | 340000 M⁻¹ s⁻¹ |  | Kd [2]: 5 nM |
| 1F11-1A3.315[Trop2]_H1.29_L1 (antibody, V domains shown) VH: QVQLVQSGAEVKKPGASVKVSCKASGYTLTRYYVHWVRQAPGQGLEWMGIIEPGGGSTDYAQKFQGRVTMTRDTSTSTVYMELSSLRSEDTAVYYCARDDVTAADVFDYWGQGTLVTVSS VL: not shown | 2.1 nM | 0.00029 s⁻¹ | 150000 M⁻¹ s⁻¹ | 2.1 nM | 0.00038 s⁻¹ | 190000 M⁻¹ s⁻¹ |  |  |
| 1F11-1A3.315[Trop2]_H1.28_L1 (antibody, V domains shown) VH: QVQLVQSGAEVKKPGASVKVSCKASGYTLTRYYMHWVRQAPGQGLEWMGIIEPGGGSTLYAQKFQGRVTMTRDTSTSTVYMELSSLRSEDTAVYYCARDDVTAADVFDYWGQGTLVTVSS VL: not shown | 1.9 nM | 0.00036 s⁻¹ | 210000 M⁻¹ s⁻¹ | 2.1 nM | 0.00055 s⁻¹ | 270000 M⁻¹ s⁻¹ |  |  |
| 1A7_H1.14_L1.71 (antibody, V domains shown, also called 1A7[CD28]_H1.14_L1.71) VH: EVQLLESGGGLVQPGGSLRLSCAASGFTFSSYYMSWVRQAPGKGLEWVSTISESGDSTYYADSVKGRFTISRDNSKNTLYLQMNSLRAEDTAVYYCAKSGPGLRQVGFDYWGQGTLVTVSS VL: not shown |  |  |  |  |  |  |  | Kd [5]: 38 nM; Kd [6]: 37 nM |
| 1A7_H1.129_IGKV1-39_L1 (Fab, V domains shown, Constant domains not specified for the assay; also called 1A7[CD28]_H1.129 paired with IGKV1-39 germline VL; 1F11-1A3.315 L1 as common light chain) VH: EVQLLESGGGLVQPGGSLRLSCAASGFTFSSYYMSWVRQAPGKGLEWVSTISERADSTYYADSVKGRFTISRDNSKNTLYLQMNSLRAEDTAVYYCAKSGPGLRQVGFDYWGQGTLVTVSS VL: not shown |  |  |  |  |  |  | 21 nM | Kd [8]: 60 to 70 nM |
| 1A7_H1.106_IGKV1-39_L1 (Fab, V domains shown, also called 1A7[CD28]_H1.106 paired with IGKV1-39 germline VL (1F11-1A3.315 L1)) VH: EVQLLESGGGLVQPGGSLRLSCAASGFTFSSYYMSWVRQAPGKGLEWVSTISERGDSTYYADSVKGRFTISRDNSKNTLYLQMNSLRAEDTAVYYCAKSGPGLRQVGFDYWGQGTLVTVSS VL: not shown |  |  |  |  |  |  | 43 nM |  |
| 1A7_H1.130_IGKV1-39_L1 (Fab, V domains shown, also called 1A7[CD28]_H1.130 paired with IGKV1-39 germline VL (1F11-1A3.315 L1)) VH: EVQLLESGGGLVQPGGSLRLSCAASGFTFSSYYMSWVRQAPGKGLEWVSTISERGDVTYYADSVKGRFTISRDNSKNTLYLQMNSLRAEDTAVYYCAKSGPGLRQVGFDYWGQGTLVTVSS VL: not shown |  |  |  |  |  |  | 46 nM |  |
| 1A7_H1.113_IGKV1-39_L1 (Fab, V domains shown, also called 1A7[CD28]_H1.113 paired with IGKV1-39 germline VL (1F11-1A3.315 L1)) VH: EVQLLESGGGLVQPGGSLRLSCAASGFTFSSYYMSWVRQAPGKGLEWVSTISERTDSTYYADSVKGRFTISRDNSKNTLYLQMNSLRAEDTAVYYCAKSGPGLRQVGFDYWGQGTLVTVSS VL: not shown |  |  |  |  |  |  | 29 nM |  |
| 1A7_H1.118_IGKV1-39_L1 (Fab, V domains shown, also called 1A7[CD28]_H1.118 paired with IGKV1-39 germline VL) VH: EVQLLESGGGLVQPGGSLRLSCAASGFTFSSYYMSWVRQAPGKGLEWVSTIAESGDPTYYADSVKGRFTISRDNSKNTLYLQMNSLRAEDTAVYYCAKSGPGLRQVGFDYWGQGTLVTVSS VL: not shown |  |  |  |  |  |  | 63 nM | Kd [8]: ~400 nM |
| 1A7_H1.114_IGKV1-39_L1 (Fab, V domains shown, also called 1A7[CD28]_H1.114 paired with IGKV1-39 germline VL (1F11-1A3.315 L1)) VH: EVQLLESGGGLVQPGGSLRLSCAASGFTFSSYYMSWVRQAPGKGLEWVSTIAERGDSTYYADSVKGRFTISRDNSKNTLYLQMNSLRAEDTAVYYCAKSGPGLRQVGFDYWGQGTLVTVSS VL: not shown |  |  |  |  |  |  | 44 nM |  |
| 1A7_H1.125_IGKV1-39_L1 (Fab, V domains shown, also called 1A7[CD28]_H1.125 paired with IGKV1-39 germline VL (1F11-1A3.315 L1)) VH: EVQLLESGGGLVQPGGSLRLSCAASGFTFSSYYMSWVRQAPGKGLEWVSTISEHGLSTYYADSVKGRFTISRDNSKNTLYLQMNSLRAEDTAVYYCAKSGPGLRQVGFDYWGQGTLVTVSS VL: not shown |  |  |  |  |  |  | 28 nM |  |
| 1A7_H1.111_IGKV1-39_L1 (Fab, V domains shown, also called 1A7[CD28]_H1.111 paired with IGKV1-39 germline VL (1F11-1A3.315 L1)) VH: EVQLLESGGGLVQPGGSLRLSCAASGFTFSSYYMSWVRQAPGKGLEWVSTISERSDSTYYADSVKGRFTISRDNSKNTLYLQMNSLRAEDTAVYYCAKSGPGLRQVGFDYWGQGTLVTVSS VL: not shown |  |  |  |  |  |  | 20 nM |  |
| 1A7_H1.107_IGKV1-39_L1 (Fab, V domains shown, also called 1A7[CD28]_H1.107 paired with IGKV1-39 germline VL (1F11-1A3.315 L1)) VH: EVQLLESGGGLVQPGGSLRLSCAASGFTFSSYYMSWVRQAPGKGLEWVSTISESSDVTYYADSVKGRFTISRDNSKNTLYLQMNSLRAEDTAVYYCAKSGPGLRQVGFDYWGQGTLVTVSS VL: not shown |  |  |  |  |  |  | 57 nM |  |
| 1C9A4.313 (antibody, V domains shown, Phage-derived TROP2 clone; also called 1C9A4.313[TROP2]_H1 with L1) VH: QVQLVQSGAEVKKPGSSVKVSCKASGGTFSNYAIGWVRQAPGQGLEWMGGIVPIFGVADYAQKFQGRVTITADESTSTAYMELSSLRSEDTAVYYCAREGWYLLNYFDYWGQGTLVTVSS VL: not shown |  |  |  |  |  |  |  | Kd [1]: 40 nM |
